Data as given in US10731143B2, “Methods and compositions for stabilizing trans-splicing intein modified proteases” (AGRIVIDA, INC., priority 2014, dated 2020).

What was measured:
[1] = Formulation protocols and long term stability in 60% Detergent-1 under accelerated ageing; type: physicochemical; conditions: 1M KCl, sequential mixing of NI and IC into 60% Detergent-1
Method: FIG. 12 illustrates comparison of alternative protocols to detergent formulate NI and IC and evaluated formulations for long term stability. Two formulation protocols as follows were compared: 1) formulation by sequential mixing of unsalted NI and IC to the detergent (detergent+NI+IC) and 2) formulation of KCl stabilized (NI+IC) premix to detergent. Detergent-1 was used at 60% (v/v) in two formats, either without supplement (−), or KCl supplement was added to 1M final concentration (+). Purified NI and IC were each used at benchmarking conc. to 1% (v/v) Savinase, at 38.1 μmolar concentration each. (NI+IC) premix was prepared and formulated to the detergent essentially as described in Example 7. Formulations were stored at 37° C. under accelerated ageing conditions and storage stabilities were tested by assaying retention of dilution inducible iProtease activity over 8 weeks at t=0, 1, 3, 6 and 8 weeks in storage. Dilution inducible activity was assayed in sequential dilutions to assay buffer, from 40- to 5120-fold dilutions as described in Example 7. iProtease activities at the 2 min time point reads of the 1:1280-fold dilutions were normalized to dilution induced iProtease activity of the (NI+IC) premix in detergent without salt at t=0 and were plotted.

[2] = Stability of stain removal activity in three detergents under accelerated ageing; conditions: 37° C., up to 4 weeks, normalized to t=0
Method: Formulations made for Example 15 were stored under accelerated ageing conditions at 37° C., and were evaluated for stain removal activity at five time points, at t=0, 1, 2, 3, and 4 weeks in storage.
The blood/milk/ink stained fabric of EMPA 117 was used in wash tests as described in Example 15. FIG. 17 illustrates stain removal stability under accelerated ageing conditions in three detergents. Three replicate washes were performed from each formulation at each time point. Referring to this figure, white light reflectance of the washed EMPA117 fabrics were normalized to their corresponding t=0 samples and were graphed.

[3] = Suppression of protease activity in Detergent-1 formulations; type: biochemical; conditions: formulations in Detergent-1
[4] = Stability of dilution inducible protease activity in three detergents under accelerated ageing; type: physicochemical; conditions: Savinase without the stabilizer (dialyzed), 37° C., up to 4 weeks
Method: Detergents were: Detergent-1, Detergent-2 and Detergent-3. For benchmarking 1% (v/v) Savinase was used, but instead of formulating the inhibitor stabilized form, the inhibitor was first removed by three steps of overnight dialysis of 0.5 mL Savinase against 5 L mTSB buffer at 4° C. using a Tube-O-Dialyzer Medi (4000 Da; GBiosciences). Volume of dialyzed Savinase in mTSB were adjusted to 1.5 mL, and 3 μL dialyzed aliquot treated with equal volume of 4M KCL was used to formulate 100 μL detergent to get 1% (v/v) of the Savinase. Sample handling was essentially the same as in Example 8, except that formulations were made to 65% detergents supplemented with KCL to 1M final conc.
Purified NI and IC were used at equimolar conc. to 1% (v/v) dialyzed Savinase, at […] concentration each. (NI+IC) premix in 2M KCl was prepared as described in Example 7, and formulations were made to 65% detergents supplemented with KCl to 1M final conc.
Detergent formulations were stored under accelerated ageing conditions at 37° C. Residual protease activities were assayed at five time points, at t=0, 1, 2, 3, and 4 weeks, in serial dilutions to assay buffer as described before. The 2 min reads of 1:2560-fold dilutions of each formulation was normalized to the t=0 as 100% and graphed. […]

[5] = Protease activity of KCl stabilized (NI+IC) premix and Savinase assayed in KCl; type: biochemical; conditions: formulated to 1M KCl aqueous buffer, diluted in KCl
Method: iProtease activity was benchmarked to 1% (v/v) Savinase. Formulation of (NI+IC) and Savinase to 1M KCl aqueous buffer was the same as in Example 1, but enzyme activity was assayed in 2M KCl as follows: In a clear flat-bottomed half-volume 96 well plate, row A wells were preloaded with […] pH˜9.0, 50 μl 4 M KCl, and 35 μL H2O. Rows B-H were preloaded with 5 μl 1×BR buffer pH˜9.0, 25 μL 4 M KCl, and 20 μL H2O. 5 μl (NI+IC) formulation was added to row A, mixed by pipetting, then 50 μL of this 20× diluted sample was added to the 50 μl salt, buffer, and water in row B and mixed. […] This process of 2× serial dilutions was repeated for rows C-H. All samples were diluted an addition 2× by adding 50 μL 500 μM suc-FAAF-pNA (in 20% DMSO) substrate, yielding samples diluted from 40× in row A to 5120× in row H. Protease activity was assayed by reading absorbance at 400 nm at 30° C. FIGS. 9A-9B illustrate that KCl stabilized (NI+IC) premix has no enzyme activity. FIG. 9A illustrates iProtease activity of the 80-fold diluted (NI+IC) premix. […].

Q: For `[Cl-].[K+]` [KCl, potassium chloride], which “boost of dilution inducible iProtease activity by supplementing the detergent” value [1] is on record?
A: Its value is “approximately 3 fold”.

B1: Savinase: extracellular alkaline protease from Bacillus lentus (Uniprot P29600), SEQ ID NO: 6; Novozymes stock, intein unmodified reference enzyme (protein, listed as Bacillus lentus)
chain: MKKPLGKIVASTALLISVAFSSSIASAAEEAKEKYLIGFNEQEAVSEFVEQVEANDEVAILSEEEEVEIELLHEFETIPVLSVELSPEDVDALELDPAISYIEEDAEVTTMAQSVPWGISRVQAPAAHNRGLTGSGVKVAVLDTGISTHPDLNIRGGASFVPGEPSTQDGNGHGTHVAGTIAALNNSIGVLGVAPSAELYAVKVLGASGSGSVSSIAQGLEWAGNNGMHVANLSLGSPSPSATLEQAVNSATSRGVLVVAASGNSGAGSISYPARYANAMAVGATDQNNNRASFSQYGAGLDIVAPGVNVQSTYPGSTYASLNGTSMATPHVAGAAALVKQKNPSWSNVQIRNHLKNTATSLGSTNLYGSGLVNAEAATR
modifications: (1)..(380) Savinase P29600
Q: What does the source list for B1?
A: stain removal activity after storage [2]: full stain removal activity; effect of Detergent-1 on protease activity [3]: did not suppress; loss of initial enzyme activity [4]: 25-70%; effect of 1M KCl on protease activity [5]: did not inhibit protease activity
